The labels stand for the following.
B1: Rv2434c-40bp (dsDNA)
DNA 1: GGTTCCCATGGGTATCACCTTCGTGATCGCCGGCAGCGTG
DNA 2: CACGCTGCCGGCGATCACGAAGGTGATACCCATGGGAACC
B2: Rv0258c-40bp (dsDNA)
DNA 1: CATGGTGTCAGGATCACCCCGCTGTGATCAAAGATCAAGC
DNA 2: GCTTGATCTTTGATCACAGCGGGGTGATCCTGACACCATG
B3: Rv3396c-40bp (dsDNA)
DNA 1: TGTGGGGTGTGCATCACCTCCGGGTGATACTGCACCCCGG
DNA 2: CCGGGGTGCAGTATCACCCGGAGGTGATGCACACCCCACA
B4: Rv2044c-40bp (dsDNA)
DNA 1: TGTCGCTCACTACATCACCGGCGTGATCTATCCCGCCGGT
DNA 2: ACCGGCGGGATAGATCACGCCGGTGATGTAGTGAGCGACA
B5: Rv0010c-40bp (dsDNA)
DNA 1: CAGTGGGGATGAATCACATGCGTGTGATTGAGTGACCAAA
DNA 2: TTTGGTCACTCAATCACACGCATGTGATTCATCCCCACTG
B6: Rv1733c-40bp (dsDNA)
DNA 1: GTGTTGCTGTCGATCACCCCCTCGTGATCGATCACGGTCG
DNA 2: CGACCGTGATCGATCACGAGGGGGTGATCGACAGCAACAC
B7: Rv0086-40bp (dsDNA)
DNA 1: CGCCATCGCCGATATCACCGGCGTGATGCGACGGTCGCGG
DNA 2: CCGCGACCGTCGCATCACGCCGGTGATATCGGCGATGGCG

For one data set, the target named is T1, HigA2 (Mycobacterium tuberculosis H37Rv) (UniProt O53467).
T1 sequence: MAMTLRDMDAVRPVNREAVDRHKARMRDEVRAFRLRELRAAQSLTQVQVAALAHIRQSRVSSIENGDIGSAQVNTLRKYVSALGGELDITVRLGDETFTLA
As to the kind of experiment: EMSA. The note with it: EMSA: 20 mM Tris-HCl, 150 mM NaCl, pH 8.0, 37 °C, 5 min, HigA2 1 uM (titrated in Fig 4); agarose or native PAGE. Pull-down: streptavidin beads, 4 °C, PBS …. Background: In EMSA bound probe runs differently from free probe, usually more slowly.
On to “CGCTGCTCTTACCCGGAGGAATATCACCCTTGTGTGATATCGCGTATCGCGCTACTCTG (double strand) [seq6]”, for which the binding entry was “binds”. Still for that read-out and setting: in the case of “GGCACAGGCTACTGTTTCAACGGCCCGGGTGCGCAGAGTCCGTCCTCGCCTGCCGGCATTTCCTCGACGGTAGCCCCGTCGCCCGCTGCTCTTACCCGGAGGAATATCACCCTTGTGTGATATCGCGTATCGCGCTACTCTGCGACTCTGTGGGGTGGACGGCGGATGTGGAGCGCATCTCCGCCTGGCTCAACGGCTTGGACCGAGAGACCTACGAATTGGTGTTCGCAGCTATCG (double strand) [seq4]” it was “binds”. higB2 40 bp returned a binding signal of 5 µM.

A further data set concerns the target T2, HigA2 (Mycobacterium tuberculosis H37Rv, UniProt O53467 1-101).
T2 sequence: T1 sequence
Description: EMSA; essentially complete binding; 1 uM DNA; EMSA: 20 mM Tris-HCl, 150 mM NaCl, pH 8.0, 37 °C, 5 min, HigA2 1 uM (titrated in Fig 4); agarose or native PAGE. Pull-down: streptavidin beads, 4 °C, PBS washes. The note with it: protein: recombinant; tags: C-terminal 6xHis; chain copies: 2; blunt.
B1: the binding signal is roughly 20 µM. For B2, the binding signal is roughly 5 µM. Still for that read-out and setting: in the case of B3 it was roughly 8 µM; in that of B4, roughly 5 µM; in that of B5, roughly 8 µM. The same measure, in the same setting: next, B6: roughly 8 µM; B7: roughly 20 µM.

(Values after publication PMC11205783, “HigA2 (Rv2021c) Is a Transcriptional Regulator with Multiple Regulatory Targets in Mycobacterium tuberculosis”.)
